Test results from patent US20190241648A1 (STATEN BIOTECHNOLOGY B V, published 2019).
Values belong to the binder of their own block, whether it stands above or below them.

Experiments:
[1] = biological target: T1, human ApoC3 (huApoC3), native protein purified from human serum (human, UniProt P02656 21-99); assay: cell-based or functional assay
[2] = biological target: T1, human ApoC3 (huApoC3), native protein …; assay: SPR Biacore, huApoC3 on chip, scFv-Fc as analyte
Protocol: This example describes characterization of anti-ApoC3 antibodies regarding their affinity to ApoC3 under neutral conditions using an SPR-based assay using a Biacore 3000 instrument (Biacore AB). Native huApoC3 protein was immobilized on a CM5 chip. The immobilization was performed in accordance with the method provided by Biacore using the NHS/EDC kit (Biacore AB): after activation of the chip, a solution of 60 μg/ml of human ApoC3 in 10 mM acetate buffer with pH of 4.5 was prepared and injected until the surface density reached approximately 1000 RU. Capturing of the human ApoC3 on the streptavidin coated chip (SA) was performed at pH 7.4 in accordance with a method provided by Biacore via injection of 20 μl 10 μg/ml biotinylated human ApoC3 thereby reaching the surface density of approximately 500 RU. […] After the dissociation, the flow cell surfaces were regenerated by injecting 10 μl of 10 mM […]/1 M NaCl and 10 μl of 10 mM glycine at pH1.5. The resulting sensorgrams were analyzed using the BIAevaluation 4.1 software using Langmuir 1:1 binding model to derive binding kinetics. Data was zero adjusted and the reference cell sensorgrams were subtracted.
A number of scFv-Fc antibodies were examined in this assay. The association rate (ka), dissociation rate (kd), analyte binding capacity (Rmax), equilibrium association constant (KA) and equilibrium dissociation constant (KD) of these antibodies are shown in Table 5.

T1 sequence (P02656 21-99): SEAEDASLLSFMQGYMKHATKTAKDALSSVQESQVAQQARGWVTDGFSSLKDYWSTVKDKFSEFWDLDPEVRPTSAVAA

- attenuation of the ability of ApoC3 to inhibit VLDL uptake by HepG2 cells [1]: ~100%
B1: 14C7 scFv-Fc (Fc fusion)
VH: QVQVQESGPGLVKPSQTLSLTCTVSGGSITTNSYYWSWIRQPPGKGLEWMGAIDYSGDTYYSPSLKSRTSISRDTSKNQFTLQLTSVTPEDTAVYYCVSRIPTGEYWGQGTQVTVSS
VL: QTVVTQEPSLSVSPGGTVTLTCGLNSGSVTSSNYPDWYQQTPGQAPRLLIYNTNSRHSGVPSRFSGSISGNKAALTITGAQPEDEADYYCALYMGSDSVVFGGGTHLTVL

- attenuation of the ability of ApoC3 to inhibit VLDL uptake by HepG2 cells [1]: ~60%
B2: 8B4 scFv-Fc (Fc fusion)
VH: ELQLVESGGGLVQPGGSLRLSCAASGFTFSNAYLYWVRQVPGKGLEWVSGINPAGDGRAYATSVKGRFTISRDNAKNTLYLQMNTLESDDTAVYYCATASRVVAYDSWGQGTQVTVSS
VL: EIVLTQSPSSVTASVGEKVTINCKSSQSVESGSDQKSYLNWYQQRPGQSPRLLIYYASTQESGIPDRFSGSGSTTDFTLTISSVQPEDAAVYYCQQAYSAPFTFGQGTKVELK

- attenuation of the ability of ApoC3 to inhibit VLDL uptake by HepG2 cells [1]: ~85%
B3: 12C3 scFv-Fc (Fc fusion)
VH: ELQLVESGGGLVQPGGSLRLSCAASGFTFSSYSMFWVRQSPGKGLERVSGINGGGDRSNYADSVRDRFTISRDNAKNTLYLQMNSLKSEDTAVYYCVIQGYAYWGQGTQVTVSS
VL: DVVLTQTPASLSVVPGESASISCKASQSLVHSDGKTYLYWLLQKPGQSPQRLIYQTSNRGSGVPDRFTGSGSGTDFTLDISGVKAEDAGVYYCAQATYSPHTFGSGTRLEIK

- attenuation of the ability of ApoC3 to inhibit VLDL uptake by HepG2 cells [1]: ~60%
B4: 12D4 scFv-Fc (Fc fusion)
VH: QLQLVESGGGLVQPGGSLRVSCAASGFTFSSSNMRWVRQVSGKGLEWVSTISPDGGKTLYADSVKGRFTISRDNAKNTLHLQMVSLKPEDTALYYCVKAGYDYWGQGTQVTVSS
VL: ATMLTQSPGSLSVVPGESASISCKASQSLVHSDGKTYLYWLLQKPGQSPQRLIYQVSNQGSGVPDRFTGSGSGTDFTLKISGVKAEDAGVYYCAQATYAPHSFGSGTRLEIK

- attenuation of the ability of ApoC3 to inhibit VLDL uptake by HepG2 cells [1]: ~100%
B5: 14G4 scFv-Fc (Fc fusion)
VH: QVQLVESGGGLVQPGGSLRLSCAASGFAFSRYTMNWVRQAPGKGLEWLSAISPDGGKTIDADSVKGAFASSRDNTMNTLYLDMNSLKPEDAAVYYCVAGHNMDYWGKGILVTVSS
VL: DVVLTQTPGSLSVVPGESASISCKASQSLVHSDGKTYLYWLLQKPGQSPQRLIYQVSNQGSGVPDRFTGSGSGTDFTLKISGVKAEDAGVYYCAQATYTPRTFGQGTTLEVK

- Ka [2]: 5.89e+08 M⁻¹
- Kd [2]: 1.7 nM
- koff [2]: 0.000207 s⁻¹
- kon [2]: 122000 M⁻¹ s⁻¹
B6: 11H1 scFv-Fc (Fc fusion)
VH: ELQLVESGGGLVQPGGSLRLSCAASGFTFSSYSMRWVRQAPGKGLEWLSSIKSDGSITSYADSVKGRFTMSRDNAKNTLYLQMNSLKSEDTAMYYCTNQGYINWGQGTQVTVSS
VL: ATMLTQSPGSLTIVPGESASISCRASQSLIHSAGKTYFYWLLQKPGQRPQLLIYQVSNRESGVPDRFTGSGSGTDFTLKISGVKAEDAGVYYCAQGTYNPKTFGQGTKLEIK
notes: scFv-Fc format

- attenuation of the ability of ApoC3 to inhibit VLDL uptake by HepG2 cells [1]: ~100%
B7: 12C12 scFv-Fc (Fc fusion)
VH: EVQVQESGPGLVKPSQTLSLTCTVSGGSITTSYYAWTWIRQPPGKGLEWVGAIVYDGSTFYSPSLKSRTSISRDTSKSQFSLQLSSVTPEDTAVYYCARSYGLGLYDLWGQGTQVTVSS
VL: QAVLTQPPSVSGSPGQKFTISCTGSSSNIGDNYVNWYQHLPGTAPKLLIYSNSNRASGVPDRFSGSKSGSSASLTITGLQAEDEADYYCSSWDDSLSGVVFGGGTHLTVL

- attenuation of the ability of ApoC3 to inhibit VLDL uptake by HepG2 cells [1]: ~40%
B8: 12E12 scFv-Fc (Fc fusion)
VH: EVQLVESGGDLVQPGGSLRVSCAASGLTFSNIYMSWVRQAPGKGLEWVSAINTAGTVTYYADSVKGRFTISRDNAKNTLYLQMNSLKPEDTAHYYCTTGEVDWGKGTLVTVSS
VL: QTVVTQEPSLSVSPGGTVTLTCGLSSGSVTSVTYPGWYQQKPGQAPRTLIYNTNSRFSGVPNRFSGSISGNKAALTITGALPEDEADYYCSVYIGGGIYPAVFGGGTHLTVL

- attenuation of the ability of ApoC3 to inhibit VLDL uptake by HepG2 cells [1]: ~60%
B9: 14C4 scFv-Fc (Fc fusion)
VH: QLQLVESGGGLVQPGGSLRLSCAASGFTFGNYDMSWVRQAPGKGPEWVSVINSDGDGTYYVDSVKGRFTISRDNAKNTLYLQMNSLKPEDRAVYYCAIANLGLWGQGTLVTVSS
VL: ATMLTQSPGSLSVVPGESASISCKATQSLVHSDGKTYLSWLLQKPGQSPQRLIYQVSNRGSGVPDRFTGSGSGTDFTLKISGVKAEDAGVYYCAQAPYWTFGQGTKLEIK

- attenuation of the ability of ApoC3 to inhibit VLDL uptake by HepG2 cells [1]: ~60%
B10: 12D1 scFv-Fc (Fc fusion)
VH: QLQLVESGGGLVQPGGSLRLSCAASGFTFGTYSMRWVRQVPRKALEWVSSISTDGGGTAYRDSVKGRFTISRDNAKNTLYLQMNNLKPEDTAIYYCVIAGYSDWGQGTQVTVSS
VL: SALDVVLTQTPGSLSVVPGESASISCKTSQSLTHSDGKTYLYWLLQKPGQSPQRLIYQVSNRGSGVPDRFTGSGSGTDFTLKISGVKAEDAGMYYCAQATYYPHTFGSGSRLEIER

- EC50, attenuation of ApoC3-mediated LPL inhibition (NEFA production) [1]: > 5000 nM
B11: 5E5 IgG1 (antibody, V domains shown)
VH: QLQLVESGGGLVQPGGSLRLSCAASGFTFGTYSMRWVRQVPRKALEWVSSISTDGGGTAYRDSVKGRFTISRDNAKNTLYLQMNNLKPEDTAIYYCVIAGYSDWGQGTQVTVSS
VL: ATMLTQSPGSLSVVPGESASISCKTSQGLVHSDGKTYFYWFLQKPGQSPQQLIYQVSNRASGVPDRFTGSGSGTDFTLKISGVKAEDAGVYYCAQGTYYPHTFGSGTRLEIK

- attenuation of the ability of ApoC3 to inhibit VLDL uptake by HepG2 cells [1]: ~95%
B12: 13C7 scFv-Fc (Fc fusion)
VH: QLQLVESGGGLVQPGGSLRLSCAASGGTFSRYYMSWVRQAPGKGLEWVSSIYKDGSNTYYADSVKGRFTISRDNAKNTLYLQMNSLKSEDTAVYYCAKALRAEYDYWGQGTQVTVSS
VL: NFMLTQPPSVSGTLGKTVTISCAGTSSDIGGYNYVAWYQQLPGTAPKLLISEVNKRASGIPDRFSGSKSGNTASLSISGLQSEDEADYYCASYRSSNSYVFGGGTKLTVL

- Ka [2]: 4.16e+09 M⁻¹
- Kd [2]: 0.24 nM
- koff [2]: 0.000675 s⁻¹
- kon [2]: 2.81e+06 M⁻¹ s⁻¹
B13: 8B7 scFv-Fc (Fc fusion)
VH: EVQVQESGPGLVKPSQTLSLTCTVSGASITNRRYAWTWIRQPPGKGLEWMGVIVYDGNTHVSPSLRSRTSISRDTSKNQFSLQLSSLTPEDTAVYYCARVLLLRDPLSLDYWGQGTQVTVSS
VL: SSALTQPPSMSGTLGKTLTISCAGTSSDIGAYNFVSWYQQLPGTAPKLLIYDIDKRASGIPDRFSGSKSGNTASLSISGLQSEDEADYYCAAYGSRDNVVFGGGTHLTVL
notes: scFv-Fc format

- Ka [2]: 3.87e+09 M⁻¹
- Kd [2]: 0.258 nM
- koff [2]: 0.00067 s⁻¹
- kon [2]: 2.59e+06 M⁻¹ s⁻¹
B14: 7A9 scFv-Fc (Fc fusion)
VH: EVQVQESGPGLVKPSQTLSLTCTVSGASITNRRYAWTWIRQPPGKGLEWMGVIVYDGNTHVSPSLRSRTSISRDTSKNQFSLQLSSLTPEDTAVYYCARVLLLRDPLSLDYWGQGTQVTVSS
VL: SSALTQPPSMSGTLGKTLTISCAGTSSDIGAYNFVSWYQQLPGTAPKLLIYDIDKRASGIPDRFSGSKSGNTASLSISGLQSEDEADYYCAAYGSRDNVVFGGGTHLTVL
notes: scFv-Fc format

- Ka [2]: 2.08e+09 M⁻¹
- Kd [2]: 0.48 nM
- koff [2]: 0.000647 s⁻¹
- kon [2]: 1.35e+06 M⁻¹ s⁻¹
B15: 5A7 scFv-Fc (Fc fusion)
VH: EVQVQESGPGLVKPSQTLSLTCTVSGASITNRRYAWTWIRQPPGKGLEWMGVIVYDGNTHVSPSLRSRTSISRDTSKNQFSLQLSSLTPEDTAVYYCARVLLLRDPLSLDYWGQGTQVTVSS
VL: SSALTQPPSMSGTLGKTLTISCAGTSSDIGAYNFVSWYQQLPGTAPKLLIYDIDKRASGIPDRFSGSKSGNTASLSISGLQSEDEADYYCAAYGSRDNVVFGGGTHLTVL
notes: scFv-Fc format

- attenuation of the ability of ApoC3 to inhibit VLDL uptake by HepG2 cells [1]: ~100%
B16: 12A3 scFv-Fc (Fc fusion)
VH: ELQLVESGGGLVQSGGSLRLSCAASGFTFSNYAMRWVRQAPGGRLEWVSSINIAGSSVVYADSVKGRFTISRDNAKNTLYLQMNSLKSEDTAVYYCAMQGFVYWGQGTQVTVSS
VL: DVVLTQTPGSLSVVPGESANISCKAGRSLVHSDGRTYLYWLLQKPGQSPQRLIYQVSNRSSGVPDRFTGSGSGTDFTLKITGVKAEDAGVYYCAQGTYYPVTFGQGTKVELK

- EC50, attenuation of ApoC3-mediated LPL inhibition (NEFA production) [1]: ~3000 nM
B17: 13G7 IgG1 (antibody, V domains shown)
VH: QVQLQESGPGLVKPSQTLSLTCTVSGGSISTTAPAWGWIRQSPGKGLDWMAVIAFDGSAYYSPSLKSRTLISRDTSKNQFSLQLSSVTPEDTAVYYCARLGGRNYPPYVELWGQGTLVTVSS
VL: QPVLTQPPALSVTLGQTAKITCQGGSLRVSYAHWYQQKPGQAPVLVSYDDDSRPSGIPERFSGSGSGATATLTISGAQAEDEGDYYCQSADSSGDNWVFGGGTHLTVL

- attenuation of the ability of ApoC3 to inhibit VLDL uptake by HepG2 cells [1]: ~100%
B18: 13G7 scFv-Fc (Fc fusion)
VH: QVQLQESGPGLVKPSQTLSLTCTVSGGSISTTAPAWGWIRQSPGKGLDWMAVIAFDGSAYYSPSLKSRTLISRDTSKNQFSLQLSSVTPEDTAVYYCARLGGRNYPPYVELWGQGTLVTVSS
VL: QPVLTQPPALSVTLGQTAKITCQGGSLRVSYAHWYQQKPGQAPVLVSYDDDSRPSGIPERFSGSGSGATATLTISGAQAEDEGDYYCQSADSSGDNWVFGGGTHLTVL
